Data on 1 molecule can be found in patent publication US20030219410A1 (TRANSGENE S A, published 2003).

In the assay the target is T1, recombinant PML (wild-type 69 kDa isoform PML, PML3B) (UniProt P29590 1-560).
T1 construct: Untagged protein used in the co-transfection and co-localisation experiments; also called Promyelocytic Leukemia Protein
T1 sequence: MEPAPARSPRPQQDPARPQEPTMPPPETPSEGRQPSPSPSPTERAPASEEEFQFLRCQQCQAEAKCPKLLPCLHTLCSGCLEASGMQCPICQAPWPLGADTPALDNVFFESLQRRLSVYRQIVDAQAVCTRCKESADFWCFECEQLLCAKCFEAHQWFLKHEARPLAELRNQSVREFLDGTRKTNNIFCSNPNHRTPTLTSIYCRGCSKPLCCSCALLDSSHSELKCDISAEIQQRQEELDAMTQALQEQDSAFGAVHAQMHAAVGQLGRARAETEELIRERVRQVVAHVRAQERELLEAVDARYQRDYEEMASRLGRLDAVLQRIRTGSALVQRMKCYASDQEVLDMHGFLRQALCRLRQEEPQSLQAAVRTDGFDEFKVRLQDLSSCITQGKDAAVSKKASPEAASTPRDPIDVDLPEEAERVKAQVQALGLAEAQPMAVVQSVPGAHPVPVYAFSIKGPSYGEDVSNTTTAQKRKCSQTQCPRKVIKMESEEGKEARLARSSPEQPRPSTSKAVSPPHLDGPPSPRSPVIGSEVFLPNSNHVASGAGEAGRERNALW
Briefly: co-localisation by immunostaining and EM in transiently co-transfected cells.

B1: recombinant wt pIX protein (other)
chain: MSTNSFDGSIVSSYLTTRMPPWAGVRQNVMGSSIDGRPVLPANSTTLTYETVSGTPLETAASAAASAAAATARGIVTDFAFLSPLASSAASRSSARDDKLTALLAQLDSLTRELNVVSQQLLDLRQQVSALKASSPPNAV
notes: Untagged protein used in the co-transfection and co-localisation experiments
On to B1, for which the binding result is reported as “binds”.
